The values below come from patent EP3583122A1.

Positions count from the first letter of the chain named. In names and notes the source's numbering stands. Like-named read-outs stand apart in the source and are kept apart here.

For experiment [1], the target named is EBOV GP[change] (Ebola virus) (UniProt Q05320).
Experiment [2] shares this target. This is another data set of the same source.
Experiment [3] has the same target. The source holds these as a separate data set.
Experiment [4] shares this target. This is another data set of the same source.
Experiment [5] has the same target. The source holds these as a separate data set.
Experiment [6] has the same target. The source holds these as a separate data set.
The target is the same in experiment [7]. The source holds these as a separate data set.
Experiment [8] shares this target. This is another data set of the same source.
For experiment [9] the target is unchanged. This is another data set of the same source.
The target is the same in experiment [10]. This is another data set of the same source.
For experiment [11] the target is unchanged. The source holds these as a separate data set.

EBOV GP[change] (Ebola virus), sequence (Q05320 33-501, chain 1 of 2): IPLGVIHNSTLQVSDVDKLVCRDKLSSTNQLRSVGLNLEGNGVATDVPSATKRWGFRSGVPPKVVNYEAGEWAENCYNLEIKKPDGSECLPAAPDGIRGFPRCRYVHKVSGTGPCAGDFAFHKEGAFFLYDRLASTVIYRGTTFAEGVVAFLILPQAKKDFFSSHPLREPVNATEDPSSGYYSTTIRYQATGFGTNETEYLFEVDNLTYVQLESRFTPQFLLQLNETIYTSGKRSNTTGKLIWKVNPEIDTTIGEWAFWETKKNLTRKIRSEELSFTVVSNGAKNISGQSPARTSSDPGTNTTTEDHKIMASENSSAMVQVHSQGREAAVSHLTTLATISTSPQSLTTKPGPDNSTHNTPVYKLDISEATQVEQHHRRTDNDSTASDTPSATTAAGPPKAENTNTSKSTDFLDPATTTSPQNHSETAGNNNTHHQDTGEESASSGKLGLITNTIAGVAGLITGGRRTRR
EBOV GP[change] (Ebola virus), sequence (Q05320 502-650, chain 2 of 2): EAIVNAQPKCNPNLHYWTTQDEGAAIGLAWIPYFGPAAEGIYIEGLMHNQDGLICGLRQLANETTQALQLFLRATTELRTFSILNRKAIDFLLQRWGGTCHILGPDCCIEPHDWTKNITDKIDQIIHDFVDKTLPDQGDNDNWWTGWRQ

B1: PE-87 H108A (antibody, V domains shown)
VH: QVQLVQSGVTLVQPGGSLRVSCAASGFTFSSYAMSWVRQAPGKGLEWVSAISGLGGSTYYADSVKGRFTISRDNSKNTLYLQMNSLRAEDTAVYYCAKDHRVWAAGYAFDYWGQGALVTVSS
VL: DIVLTQSPSTLSASVGDRVTITCRASQSISSWLAWYQQKPGEAPKLLISDASSLESGVPSRFSGSGSGTEFTLTISSLQPDDFATYYCQQYYSSPTFGGGTKVEIK
Consider B1, for which, in experiment [1], the Kd (commonly the free concentration of one partner at which half of the binding sites on the other are occupied at equilibrium, for simple one-to-one binding) was 18 nM.

B2: PE-87 F109A (antibody, V domains shown)
VH: B1 VH with A108H, F109A
VL: B1 VL
Molecule B2 displayed a dissociation constant Kd in experiment [2] of 37 nM.

B3: PE-87 G106A (antibody, V domains shown)
VH: B1 VH with G106A, A108H
VL: B1 VL
As for B3, in experiment [3], the Kd worked out at 0.03 nM.

B4: PE-87 D99A (antibody, V domains shown)
VH: B1 VH with D99A, A108H
VL: B1 VL
B4 came in with a Kd in experiment [4] of 74 nM.

B5: PE-87 Y111A (antibody, V domains shown)
VH: B1 VH with A108H, Y111A
VL: B1 VL
For B5, in experiment [5], the Kd is 5.9 nM.

B6: PE-87 Y107A (antibody, V domains shown)
VH: B1 VH with Y107A, A108H
VL: B1 VL
Regarding B6, the Kd in [6] stood at 30 nM.

B7: PE-87 D110A (antibody, V domains shown)
VH: B1 VH with A108H, D110A
VL: B1 VL
B7: in experiment [7], the Kd amounted to 1.3 nM.

B8: PE-87 H100A (antibody, V domains shown)
VH: B1 VH with H100A, A108H
VL: B1 VL
Turning to B8, the Kd in [8] came out at 4.5 nM.

B9: PE-87 V102A (antibody, V domains shown)
VH: B1 VH with V102A, A108H
VL: B1 VL
B9 had an equilibrium dissociation constant (Kd) in [9] of 4 nM.

B10: PE-87 W103A (antibody, V domains shown)
VH: B1 VH with W103A, A108H
VL: B1 VL
In experiment [10], B10 showed a Kd of 1.3 nM.

B11: PE-87 R101A (antibody, V domains shown)
VH: B1 VH with R101A, A108H
VL: B1 VL
For B11, the Kd in [11] was found to be 9.4 nM.
